The results in this text go back to patent publication US20120100604A1, “METHODS AND COMPOSITIONS FOR GENERATING SELF ATTENUATING GENETIC CIRCUITRY” (THE REGENTS OF THE UNIVERSITY OF CALIFORNIA, priority 2008, published 2012).

In test [1] the test system is muscle stem cells (satellite cells). Kind of test: Myogenic responses of mouse muscle stem cells in young or old mouse sera (TGF-β1 depletion and add-back, Wnt3A, FRP3). In kind it is cell-based. The method, then:
To examine the relative role of circulating TGF-β1 in the age-specific inhibition of muscle stem cell responses, TGF-β1 was depleted from young and old mouse sera and then added back in a range of concentrations. Muscle stem cells derived from young and old mice were cultured in the presence of young and old mouse sera that differed only in the levels of TGF-β1, and the regenerative responses of these cells were assayed. Serum was depleted of TGF-β1 by incubation with a TGF-β1 specific antibody (or an isotype-matched control IgG) followed by binding and removal of the TGF-β1-antibody complexes (or IgG control antibody complexes, e.g. control sera) using protein G-coated agarose beads. The success in the TGF-β1 depletion was confirmed by ELISA. The myogenic regenerative potential of muscle stem cells was quantified based on their ability to rapidly (overnight) generate de-novo myogenic lineages: BrdU-incorporating desmin+myoblasts (myogenic proliferation) that differentiate into post-mitotic eMyHC+myotubes (myogenic differentiation). The time course of such de-novo in vitro myogenesis that recapitulates the in vivo muscle repair is shown in FIG. 14A-D. Myogenic proliferation (at 24-28 hours of culture) and myogenic differentiation (at 48-72 hours of culture) were consistently higher for young satellite cells as compared to old satellite cells and in young sera as compared to old sera at all time points (FIGS. 17 and 18). The non-myogenic, desmin negative proliferating fibroblasts (known to contaminate satellite cell preparations at ˜2-5% and to expand in the presence of old sera or high levels of TGF-β (Carlson et al., 2008) were less numerous in cultures with experimentally calibrated levels of TGF-β1 (FIG. 15) and also declined in cultures with exogenous Wnt 3A (FIG. 16A).
Recombinant TGF-β1 was added at a range of concentrations to these mouse sera (depleted from endogenous TGF-β1) and assayed the regenerative responses of muscle stem cells, as above. […] The levels of TGF-β1 that are permissive for myogenic responses correspond to the range of bioactive TGF-β1 found in young blood sera, while the inhibitory range corresponds to the levels typical of aged circulation. The threshold mode of TGF-β1-imposed inhibition of muscle repair established here, also correlate well with the results of heterochronic parabiosis.
A similar rescue of satellite cell responses in the presence of old serum was reported to be achieved by inhibition of Wnt via FRPs, and exogenous Wnt3A was reported to inhibit satellite cell myogenic responses, in favor of fibroblast trans-differentiation (Brack et al., (2007), Science, 317:807-810). Thus, an investigation was conducted to determine whether Wnt was potentially synergistic with the TGF-β1-dependent attenuation of myogenic potential. Myogenic potential of young and old satellite cells was examined in the following conditions: young serum with exogenous Wnt3A (by itself or simultaneously with exogenous TGF β1) or old serum with exogenous FRP3 (by itself or simultaneously with TGF-β neutralization). […] In fact, consistent with the previously reported pro-myogenic activity of Wnt, Wnt3A […].
Myofiber explant cultures and primary myogenic progenitor cells were generated from C57/Bl6 mice using methods known in the art (see e.g., Conboy et al., (2003), Science, 302:1575-1577). Myoblasts were maintained in growth media (Ham's F-10, 20% FBS, 5 ng/ml basic-FGF, and penicillin-streptomycin). Opti-MEM was used to culture myofibers explants in 10% young, 10% old, or 10% young and old mouse serum (5% each). Differentiation media consisted of DMEM and 5% horse serum. Basic-FGF was obtained from Sigma (St. Louis, Mo.) and R&D systems (Minneapolis, Minn.), Opti-MEM was obtained from Invitrogen (Carlsbad, Calif.), and all other cell culture reagents were obtained from Cellgro (Herndon, Va.).

Test [2] concerns human satellite cells. Kind of test: Myogenic regenerative capacity of human satellite cells (proliferating fusion-competent myoblasts, desmin/BrdU). The test is classed as cell-based. To be noted: young and old human satellite cells in culture. The method, then: Myofiber and satellite cell cultures were isolated from basal state human biopsies, in a manner similar to those previously described for the mouse model (Conboy et al. (2003) Science 302:1575-1577). Whole muscle biopsies were prepared for myofiber fragments by enzymatic digestion −37° C. in DMEM (Invitrogen, Carlsbad, Calif.)/Pen-Strep (Invitrogen)/0.2% Collagenase Type IIA (Sigma), trituration, and multiple sedimentation and washing procedures. Isolated satellite cells and myofibers were resuspended in growth medium (Ham's F10 nutrient mixture—Mediatech, Inc., Herndon, Va.), 10% BGS, 5 ng/ml hbFGF (Invitrogen) and 1% Pen-Strep, and cultured on Matrigel (diluted 1:250). Blood was collected from subjects for sera isolation. Briefly, blood cells were coagulated followed by centrifugation at 8,000 rpm, 4° C. in a microfuge for 3 minutes. […]
To examine effects of TGF-β on myogenic properties of human muscle stem cells, exogenous molecule was added to young and old human satellite cells in culture. Myogenic capacity was determined based on numbers of fusion-competent, proliferating myoblasts, e.g., cells that rapidly (in approximately 2 hours) incorporate BrdU, co-express desmin and MyoD and fuse into eMyHC+myotubes when transferred to mitogen-low medium. […]

In test [3] the test system is MAPK pathway / Notch in human satellite cells. Kind of test: Western blot of Delta, active Notch and pERK in human satellite cells cultured with MAPK agonists and antagonists. To be noted: human satellite cells in culture. In kind it is cell-based. How it is done:
Myofiber and satellite cell cultures were isolated from basal state human biopsies, in a manner similar to those previously described for the mouse model (Conboy et al. (2003) Science 302:1575-1577). Whole muscle biopsies were prepared for myofiber fragments by enzymatic digestion −37° C. in DMEM (Invitrogen, Carlsbad, Calif.)/Pen-Strep (Invitrogen)/0.2% Collagenase Type IIA (Sigma), trituration, and multiple sedimentation and washing procedures. Isolated satellite cells and myofibers were resuspended in growth medium (Ham's F10 nutrient mixture—Mediatech, Inc., Herndon, Va.), 10% BGS, 5 ng/ml hbFGF (Invitrogen) and 1% Pen-Strep, and cultured on Matrigel (diluted 1:250). Blood was collected from subjects for sera isolation. Briefly, blood cells were coagulated followed by centrifugation at 8,000 rpm, 4° C. in a microfuge for 3 minutes.
For Western Blot analysis, whole skeletal muscle lysates were prepared in lysis buffer (50 mM Tris, 150 mM NaCl, 1% NP40, 0.25% sodium deoxycholate and 1 mM EDTA, pH 7.4) with addition of protease inhibitor cocktail (Sigma) and 1 mM PMSF. Phosphatase activity was inhibited by 1 mM sodium fluoride and 1 mM sodium orthovanadate. For most assays, 30 μg protein extracts were run on pre-cast SDS PAGE gels (BioRad). Primary antibodies were diluted in 5% non-fat milk/1× PBST, and nitrocellulose membranes were incubated with antibody mixtures overnight at 4° C. HRP-conjugated secondary antibodies (Santa Cruz Biotech) were diluted 1:1000 in 1× PBST/1% BSA and incubated for 1 hour at room temperature. Blots were developed using Western Lightning ECL reagent (Perkin Elmer) and analyzed with Bio-Rad Gel Doc/Chemi Doc Imaging System and Quantity One software. Results were quantified by digitizing the data and normalizing pixel density of examined protein by actin-specific pixel density.
The levels of Delta, amounts of active Notch and the efficiency of myogenic responses in human satellite cells cultured in the presence of agonists and antagonists of MAPK pathway were investigated. […]
A general note: In western blotting, separated proteins are transferred to a membrane and probed.

Test [4] has as its system TGF-β/pSmad signaling. In words: Western blot of pSmad3 and TGF-β1 in muscle of treated old mice. In kind it is in vivo, mouse. To be noted: osmotic pumps.
Test [5] has as its system TGF-β1. Kind of test: ELISA of circulating TGF-β1 in treated old mice. In kind it is in vivo, mouse. An excerpt: Control injections/pumps of goat IgG yielded data typical of young and old untreated mice for muscle repair and TGF-β1 ELISA.
A general note: In an ELISA, binding on a coated surface is turned into a signal by an enzyme label.

Test [6] deals with old muscle repair. Kind of test: Muscle regeneration after CTX injury in mice given systemic TGF-β attenuators. The test is classed as in vivo, mouse. How it is done: Five days before the end of treatment, muscle was injured. At the end of treatment, animals were sacrificed and muscle was collected. BrdU was injected (intraperitoneal) at 3 days post-injury to label proliferating, fusion-competent myoblasts.
Experiments were conducted to rejuvenate muscle repair in old tissue by attenuating TGF-β pathway activity through systemic pharmacological intervention, in vivo. Three independent attenuators were used: (1) a small molecule inhibitor of TGF-β RI Kinase, (2) TGF-β neutralizing antibody and (3) a decoy composed of the extracellular portion of TGF-β receptor II. These molecules were administered systemically to mice, twice daily. After 10 days of dosage, muscle was injured by CTX, and 5 days after injury and BrdU administration the muscle was harvested, frozen, and examined histologically.
To control for the potential differences in the half-life of anti-TGF-β neutralizing antibody as compared to TGF-β RI Kinase inhibitor, constitutive systemic delivery of these molecules was provided by osmotic subcutaneous pumps for four weeks.

Take “TGF-β1: recombinant TGF-β1 added to cultures or depleted sera [reference compound]”: the “concentration of TGF-β1 that alone suffices for inhibition of myogenic satellite cell responses” value in test [1] (recombinant TGF-β1 added to mouse sera depleted of endogenous TGF-β1, 1-5 ng/ml and higher) lay in the range of 1 to 5 ng/mL. In test [2], the “myogenic regenerative capacity (proliferating fusion-competent myoblasts, desmin/BrdU)” value was “dramatically reduced”.

Turning to FGF-2: MAPK agonist FGF-2, in test [3], the Delta levels entry is listed as “induced”, the “active Notch levels” value is recorded as “induced” and the “levels of pERK” value was “induced”. Also, the “myogenic regenerative capacity (proliferating fusion-competent myoblasts, desmin/BrdU)” value in test [2] is listed as “significantly enhanced”.

B1: soluble TGF-β receptor II: a decoy composed of the extracellular portion of TGF-β receptor II (protein, UniProt P37173 23-166, looked up)
extracellular domain: TIPPHVQKSVNNDMIVTDNNGAVKFPQLCKFCDVRFSTCDNQKSCMSNCSITSICEKPQEVCVAVWRKNDENITLETVCHDPKLPYHDFILEDAASPKCIMKEKKKPGETFFMCSCSSDECNDNIIFSEEYNTSNPDLLLVIFQ
modifications: extracellular domain
In the case of B1, in test [4], the “levels of TGF-β1 in old muscle” value is given as “not” and the “levels of pSmad3 in old muscle” value is “not”. In test [5], the “circulating levels of TGF-β1” value is given as “failed to reduce”. Moreover, the “muscle regeneration / myogenic regenerative capacity” value in test [6] (old mice, systemic administration twice daily, CTX injury after 10 days, 5 days post-injury) is listed as “did not result in the rejuvenation”.

B2: FRP: exogenous FRP3, inhibitor of Wnt (protein, UniProt Q92765 33-325, looked up)
Secreted frizzled-related …: AACEPVRIPLCKSLPWNMTKMPNHLHHSTQANAILAIEQFEGLLGTHCSPDLLFFLCAMYAPICTIDFQHEPIKPCKSVCERARQGCEPILIKYRHSWPENLACEELPVYDRGVCISPEAIVTADGADFPMDSSNGNCRGASSERCKCKPIRATQKTYFRNNYNYVIRAKVKEIKTKCHDVTAVVEVKEILKSSLVNIPRDTVNLYTSSGCLCPPLNVNEEYIIMGYEDEERSRLLLVEGSIAEKWKDRLGKKVKRWDMKLRHLGLSKSDSSNSDSTQSQKSGRNSNPRQARN
B2: the “myogenic responses in old serum” value in test [1] (old serum with exogenous FRP3) is given as “did not rescue”. For the same molecule, in test [6] (experimental attenuation of Wnt by FRP), the “regeneration of old muscle in vivo” value was “did not improve”.

B3: Wnt3A: exogenous Wnt3A (protein, UniProt P56704 19-352, looked up)
Protein Wnt-3a: SYPIWWSLAVGPQYSSLGSQPILCASIPGLVPKQLRFCRNYVEIMPSVAEGIKIGIQECQHQFRGRRWNCTTVHDSLAIFGPVLDKATRESAFVHAIASAGVAFAVTRSCAEGTAAICGCSSRHQGSPGKGWKWGGCSEDIEFGGMVSREFADARENRPDARSAMNRHNNEAGRQAIASHMHLKCKCHGLSGSCEVKTCWWSQPDFRAIGDFLKDKYDSASEMVVEKHRESRGWVETLRPRYTYFKVPTERDLVYYEASPNFCEPNPETGSFGTRDRTCNVSSHGIDGCDLLCCGRGHNARAERRREKCRCVFHWCCYVSCQECTRVYDVHTCK
In the case of B3, the “generation of fusion-competent proliferating myoblasts by satellite cells” value in test [1] (Wnt3A simultaneously with exogenous TGF-β1, young serum) was “enhanced”. In test [1] (exogenous Wnt3A), the myotube formation result was “enhanced” and the “presence of non-myogenic fibroblastic cells (desmin-BrdU+)” value is listed as “actually reduced”. In addition, the “myogenic potential in young serum” value in test [1] (young serum with exogenous Wnt3A) is on record as “did not reduce”.
